From paper PMC8955606 (Toxins, 2022) come the findings set out here.

Conditions in all cases: both partners purified
The target of assay [1] is Protective Antigen PA83 (83 kDa) of Bacillus anthracis (Bacillus anthracis, strain of …, UniProt P13423). Nature of the assay: SPR. (In general: SPR reads the build-up and loss of mass on a sensor chip optically.)
The target of assay [2] is T1, PA83 peptide PLYISNPNY (domain IV) (Bacillus anthracis).
T1 chain: PLYISNPNY
Nature of the assay: peptide or protein array.

Assay [3] has as its target T2, PA83 region YTVDVKNKRTFLSPWI (domain I) (Bacillus anthracis).
T2 chain: YTVDVKNKRTFLSPWI
Put plainly: peptide or protein array.

Sequence of Protective Antigen PA83 (83 kDa) of Bacillus anthracis (P13423 whole entry, looked up): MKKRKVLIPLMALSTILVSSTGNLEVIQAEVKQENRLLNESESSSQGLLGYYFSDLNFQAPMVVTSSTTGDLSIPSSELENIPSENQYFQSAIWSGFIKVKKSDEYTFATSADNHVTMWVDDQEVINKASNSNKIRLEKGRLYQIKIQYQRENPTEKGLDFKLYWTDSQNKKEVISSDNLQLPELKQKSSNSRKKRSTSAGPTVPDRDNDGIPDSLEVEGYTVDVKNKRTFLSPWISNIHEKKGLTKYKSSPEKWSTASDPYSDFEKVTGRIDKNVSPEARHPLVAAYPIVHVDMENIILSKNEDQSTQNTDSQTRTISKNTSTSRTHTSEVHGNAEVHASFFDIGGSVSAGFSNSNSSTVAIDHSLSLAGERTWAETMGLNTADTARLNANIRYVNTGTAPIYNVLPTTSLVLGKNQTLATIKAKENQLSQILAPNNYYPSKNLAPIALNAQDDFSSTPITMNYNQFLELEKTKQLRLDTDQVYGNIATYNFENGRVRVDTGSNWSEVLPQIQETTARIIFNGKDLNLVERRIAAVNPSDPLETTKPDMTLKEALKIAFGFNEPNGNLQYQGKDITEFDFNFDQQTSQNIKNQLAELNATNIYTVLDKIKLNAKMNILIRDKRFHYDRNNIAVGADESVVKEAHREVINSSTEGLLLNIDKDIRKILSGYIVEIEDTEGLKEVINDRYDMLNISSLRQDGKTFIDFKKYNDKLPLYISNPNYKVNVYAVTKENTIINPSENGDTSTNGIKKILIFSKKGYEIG

B1: 35PA83 6.20 G1 (antibody, V domains shown)
VH: QVQLQESGPGLVKPSETLSLTCTVSGDSISGGYYWGWIRQSPGKGLEWIGLIYGSTADTRYNPSLKGRVTISKDTSKNQFSLKLSSVTAADTAVYYCARSGYNFWSGEYYGLDSWGQGTLVTVSS
VL: AIQLTQSPSSLSAYVGDRVTITCHASQGINSWLAWYQQKPGKAPKLLIYKASSLLSGVPSRFSGSGSGTDFTLTISSLQSEDFATYYCLQYDSAPLAFGPGTKLEIK
notes: also called mutant that combined the 10 selected mutations; source: expressed and purified by Proteogenix
Take B1: in assay [1], the Kd (commonly the concentration at which binding is half-saturated) amounted to 0.316 nM.

B2: 35PA83 6.20 (parental antibody of the super-humanization) (antibody, V domains shown)
VH: QVQLQESGPGLLKPSETLSLTCAVSGDSISGGYYWSWIRQSPGKGLEWIGLIYGSTADTRYNPSLKGRVTISKDTSKNQLSLQLRSVTAADTAVYYCARSGYNFWSGEYYGLDSWGQGAVVTVSS
VL: AIQLTQSPSSLSAYVGDKVTITCHASQGINSWLAWYQQKPGKAPKLLIYKASSLLSGVPSRFSGSGSGTDYTLTISSLQSEDFASYYCLQYDSAPLAFGPGTKLDIK
notes: also called the parental antibody; 35PA80 6.20
With B2, in assay [1], binding was put at a Kd of 0.18 nM.

B3: 35PA83 6.20 IgG1 (GMP batch) (antibody, V domains shown)
VH: QVQLQESGPGLLKPSETLSLTCAVSGDSISGGYYWSWIRQSPGKGLEWIGLIYGSTADTRYNPSLKGRVTISKDTSKNQLSLQLRSVTAADTAVYYCARSGYNFWSGEYYGLDSWGQGAVVTVSS
VL: AIQLTQSPSSLSAYVGDKVTITCHASQGINSWLAWYQQKPGKAPKLLIYKASSLLSGVPSRFSGSGSGTDYTLTISSLQSEDFASYYCLQYDSAPLAFGPGTKLDIK
notes: also called IgG 35PA83 6.20; 35PA83 6.20 mAb; source: rat YB2/0-E cell line (LFB), GMP conditions
In the case of B3, the binding result in assay [2] and in assay [3] was “binds” throughout.
